# Reference: PMC4484258, “Identification of BST-2/tetherin-induced hepatitis B virus restriction and hepatocyte-specific BST-2 inactivation” (Scientific Reports, 2015)
# B1: BST-2 with an internal HA tag (BST-2 IHA), wild type (natural protein)
# chain: MASTSYDYCRVPMEDGDKRCKLLLGIGILVLLIIVILGVPLIIFTIKANSEACRDGLRAVMECRNVTHLLQQELTEAQKGFQDVEAQAATCNHTVMALMASLDAEKAQGQKKVEELEGEITTLNHKLQDASAEVERLRRENQVLSVRIADKKYYPSSQDSS
# Target: HBV enveloped particles (HBsAg) released from cells transfected with the pCMV ayw HBV proviral construct (hepatitis B virus (ayw), UniProt P03138-1 1-389; P03138-2 1-281; P03138-3 1-226)
# Sequence (P03138 whole entry, chain 1 of 3): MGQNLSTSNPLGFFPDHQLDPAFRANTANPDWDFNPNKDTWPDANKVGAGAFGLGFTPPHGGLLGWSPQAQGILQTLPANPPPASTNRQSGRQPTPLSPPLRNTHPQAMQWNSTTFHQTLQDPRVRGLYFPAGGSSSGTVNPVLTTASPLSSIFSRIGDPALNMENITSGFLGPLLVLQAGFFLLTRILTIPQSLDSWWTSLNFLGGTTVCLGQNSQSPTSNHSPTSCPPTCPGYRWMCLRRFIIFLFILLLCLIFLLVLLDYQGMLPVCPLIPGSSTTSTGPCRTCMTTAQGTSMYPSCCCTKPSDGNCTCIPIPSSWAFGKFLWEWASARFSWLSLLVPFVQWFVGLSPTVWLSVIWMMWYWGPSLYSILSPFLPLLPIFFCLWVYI
# Sequence (P03138 109-389, chain 2 of 3): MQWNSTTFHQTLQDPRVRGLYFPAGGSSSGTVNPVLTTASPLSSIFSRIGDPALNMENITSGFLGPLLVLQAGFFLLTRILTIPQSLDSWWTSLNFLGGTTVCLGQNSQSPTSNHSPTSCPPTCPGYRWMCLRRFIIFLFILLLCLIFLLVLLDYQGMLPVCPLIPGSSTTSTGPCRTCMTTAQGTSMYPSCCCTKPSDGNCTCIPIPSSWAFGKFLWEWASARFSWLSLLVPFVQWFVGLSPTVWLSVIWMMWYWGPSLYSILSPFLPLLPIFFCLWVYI
# Sequence (P03138 164-389, chain 3 of 3): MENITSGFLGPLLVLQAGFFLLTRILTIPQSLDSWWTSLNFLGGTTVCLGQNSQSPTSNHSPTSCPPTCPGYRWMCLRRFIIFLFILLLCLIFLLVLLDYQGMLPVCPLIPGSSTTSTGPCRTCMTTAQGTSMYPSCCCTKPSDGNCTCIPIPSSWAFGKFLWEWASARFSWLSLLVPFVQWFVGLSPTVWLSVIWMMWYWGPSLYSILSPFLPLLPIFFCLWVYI
# Assay: cell-based or functional assay
binder,measurement,value
B1,BST-2-induced NF-κB signaling (pNF-κB-Luc reporter in 293T cells) in the presence of HBV expression,~10 fold
